T1: human tissue factor pathway inhibitor (TFPI) (human, UniProt P10646 29-304, limits assumed)
T1 construct: also called human TFPI (American Diagnostica)
T1 sequence (looked up): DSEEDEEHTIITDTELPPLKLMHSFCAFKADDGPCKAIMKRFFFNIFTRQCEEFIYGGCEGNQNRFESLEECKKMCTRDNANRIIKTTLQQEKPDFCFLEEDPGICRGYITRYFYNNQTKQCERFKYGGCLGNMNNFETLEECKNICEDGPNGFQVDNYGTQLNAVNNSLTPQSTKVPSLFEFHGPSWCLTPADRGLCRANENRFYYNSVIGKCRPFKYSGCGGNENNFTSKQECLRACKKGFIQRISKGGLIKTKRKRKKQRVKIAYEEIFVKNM


Molecular target: T1, human tissue factor pathway inhibitor …
Test: BIACORE kinetics, CM4 chip with low density of amine-coupled human TFPI, antibody injected
Protocol: A CM4 sensor chip was immobilized with a low density of human TFPI using an amine coupling kit (GE HealthCare). Kinetic assays of parental IgG and IgG-linker1 were conducted using different concentration of the antibodies, followed by regeneration with pH 1.5 glycine buffer. The parental IgG and IgG-linker1 antibodies at a concentration of 1 μg were digested with 1 unit of biotinylated thrombin (Novagen) for 1 hr at 37° C. The antibodies with or without digestion were injected to a BIACORE™ system for TFPI-binding analysis.

Row | Binder | kon [M⁻¹ s⁻¹]
1 | parental IgG (parental anti-TFPI antibody) (antibody, Expressed in HEK293 6E cells; also called Parent IgG; WT antibody) heavy: EVQLVESGGGLVQPGGSLRLSCAASGFTFSSYGMDWVRQAPGKGLEWVSSIRGSRGSTYYADSVKGRFTISRDNSKNTLYLQMNSLRAEDTAVYYCARLYRYWFDYWGQGTLVTVSSASTKGPSVFPLAPCSRSTSESTAALGCLVKDYFPEPVTVSWNSGALTSGVHTFPAVLQSSGLYSLSSVVTVPSSNFGTQTYTCNVDHKPSNTKVDKTVERKCCVECPPCPAPPVAGPSVFLFPPKPKDTLMISRTPEVTCVVVDVSHEDPEVQFNWYVDGVEVHNAKTKPREEQFNSTFRVVSVLTVVHQDWLNGKEYKCKVSNKGLPAPIEKTISKTKGQPREPQVYTLPPSREEMTKNQVSLTCLVKGFYPSDIAVEWESNGQPENNYKTTPPMLDSDGSFFLYSKLTVDKSRWQQGNVFSCSVMHEALHNHYTQKSLSLSPG light: SYELTQPPSVSVSPGQTARITCSGDNLPKYYAHWYQQKPGQAPVVVIFYDVNRPSGIPERFSGSNSGNTATLTISGTQAMDEADYYCQAWWSSTPVFGGGTKLTVLGQPKAAPSVTLFPPSSEELQANKATLVCLISDFYPGAVTVAWKADSSPVKAGVETTTPSKQSNNKYAASSYLSLTPEQWKSHRSYSCQVTHEGSTVEKTVAPTECS | 1.54e+06
2 | IgG-linker1 (protease-regulated anti-TFPI IgG, undigested) (antibody, Expressed in HEK293 6E cells; also called IgG2-linker1) light: SYELTQPPSVSVSPGQTARITCSGDNLPKYYAHWYQQKPGQAPVVVIFYDVNRPSGIPERFSGSNSGNTATLTISGTQAMDEADYYCQAWWSSTPVFGGGTKLTVLGGGGSLVPRGSGGGGSGQPKAAPSVTLFPPSSEELQANKATLVCLISDFYPGAVTVAWKADSSPVKAGVETTTPSKQSNNKYAASSYLSLTPEQWKSHRSYSCQVTHEGSTVEKTVAPTECS heavy: EVQLVESGGGLVQPGGSLRLSCAASGFTFSSYGMDWVRQAPGKGLEWVSSIRGSRGSTYYADSVKGRFTISRDNSKNTLYLQMNSLRAEDTAVYYCARLYRYWFDYWGQGTLVTVSSASGGGGSLVPRGSGGGGSTKGPSVFPLAPCSRSTSESTAALGCLVKDYFPEPVTVSWNSGALTSGVHTFPAVLQSSGLYSLSSVVTVPSSNFGTQTYTCNVDHKPSNTKVDKTVERKCCVECPPCPAPPVAGPSVFLFPPKPKDTLMISRTPEVTCVVVDVSHEDPEVQFNWYVDGVEVHNAKTKPREEQFNSTFRVVSVLTVVHQDWLNGKEYKCKVSNKGLPAPIEKTISKTKGQPREPQVYTLPPSREEMTKNQVSLTCLVKGFYPSDIAVEWESNGQPENNYKTTPPMLDSDGSFFLYSKLTVDKSRWQQGNVFSCSVMHEALHNHYTQKSLSLSPG | 1.9e+06

Source: patent US20180251570A1 (Bayer, published 2018)
